Results published in paper PMC10603095 (Nature Communications, 2023).
Substitutions are numbered along the chain they refer to. Names and notes keep the numbering of the source.

B1: DNPH1^E104Q (human 2'-deoxynucleoside 5'-monophosphate N-glycosidase, crystallisation construct aa 19-162, E104Q) (enzyme, UniProt O43598 19-162, looked up)
chain: GRPALYFCGSIRGGREDRTLYERIVSRLRRFGTVLTEHVAAAELGARGEEAAGGDRLIHEQDLEWLQQADVVVAEVTQPSLGVGYQLGRAVAFNKRILCLFRPQSGRVLSAMIRGAADGSRFQVWDYEEGEVEALLDRYFEADP
notes: also called RCL; source: E. coli BL21 Star (DE3), purified (Ni-NTA, TEV cleavage, HisTrap and Resource Q flow-through, size exclusion)
B2: DNPH1^E55Q (human 2'-deoxynucleoside 5'-monophosphate N-glycosidase, crystallisation construct aa 19-162, E55Q) (enzyme, UniProt O43598 19-162, looked up)
chain: B1 chain with E37Q, Q86E
modifications: deoxyribose monophosphate (dRP) covalently fused to E104
notes: 2'-deoxynucleoside 5'-monophosphate N-glycosidase (DNPH1, RCL), human, isoform 1, residues 19-162 (crystallisation construct) with the point mutation E55Q; Co-crystallised with hmdUMP; the crystal holds the trapped glycosyl-enzyme intermediate; also called RCL

What was measured:
[1] = biological target: the molecule itself; assay: crystal structure; DNPH1^E104Q co-crystallised with hmdUMP at 4 °C; space group P2_(1), 1.78 Å; six chains in the asymmetric unit
[2] = biological target: the molecule itself; assay: crystal structure; DNPH1^E55Q co-crystallised with hmdUMP; space group P2_(1)2_(1)2_(1), 1.65 Å; one homodimer in the asymmetric unit

Protein | binding result [1] | binding result [2]
B1 | binds | 
B2 |  | binds
